# Experimental data reported in patent US20210130436A1 (published 2021).
# Where a chain is given by its changes, count along the chain named. In names and notes the source's numbering stands.
# T1: CD96 (UniProt P40200 22-585, limits assumed)
# T1 construct: whole, on cells
# T1 sequence (looked up): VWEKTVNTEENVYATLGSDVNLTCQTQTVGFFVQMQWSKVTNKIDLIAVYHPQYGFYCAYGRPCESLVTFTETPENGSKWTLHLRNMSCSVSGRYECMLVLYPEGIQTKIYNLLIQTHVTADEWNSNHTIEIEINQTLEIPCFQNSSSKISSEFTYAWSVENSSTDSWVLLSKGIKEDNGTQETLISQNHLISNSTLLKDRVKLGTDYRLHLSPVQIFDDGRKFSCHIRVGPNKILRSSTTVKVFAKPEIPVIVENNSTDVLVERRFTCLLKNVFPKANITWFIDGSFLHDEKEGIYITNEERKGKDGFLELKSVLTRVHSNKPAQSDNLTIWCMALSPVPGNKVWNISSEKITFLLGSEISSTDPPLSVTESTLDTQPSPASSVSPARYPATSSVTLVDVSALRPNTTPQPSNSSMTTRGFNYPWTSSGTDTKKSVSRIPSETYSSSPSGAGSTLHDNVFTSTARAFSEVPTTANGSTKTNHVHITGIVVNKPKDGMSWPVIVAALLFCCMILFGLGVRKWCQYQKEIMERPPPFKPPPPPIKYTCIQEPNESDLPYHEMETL
# T2: CD226 (UniProt Q15762 19-336)
# T2 construct: whole, on cells
# T2 sequence (looked up): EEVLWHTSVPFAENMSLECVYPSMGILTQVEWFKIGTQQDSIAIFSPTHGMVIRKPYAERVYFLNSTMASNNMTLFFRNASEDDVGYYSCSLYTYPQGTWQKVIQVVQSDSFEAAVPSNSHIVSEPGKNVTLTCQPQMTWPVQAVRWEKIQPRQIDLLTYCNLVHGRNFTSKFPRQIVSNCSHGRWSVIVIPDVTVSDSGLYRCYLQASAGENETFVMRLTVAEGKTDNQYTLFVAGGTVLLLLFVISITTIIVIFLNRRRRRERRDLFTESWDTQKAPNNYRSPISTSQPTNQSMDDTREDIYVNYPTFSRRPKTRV
# B1: CD80 IgV-Fc T13R/Q27L/Q33L/E35D/T41S/M47V/N48K/V68M/L85M (Fc fusion, not shown: a dimerising Fc or GST)
# chain: VIHVTKEVKEVARLSCGHNVSVEELALTRIYWLKDKKMVLSMMSGDVKIWPEYKNRTIFDITNNLSIMILALRPSDEGTYECVVMKYEKDAFKREHLAEVTLSVKAD
# B2: CD80 IgV-Fc T13R/Q33L/E35D/M47L/V68M/L85M (Fc fusion, not shown: a dimerising Fc or GST)
# chain: B1 chain with L27Q, S41T, V47L, K48N
# B3: CD80 IgV-Fc T13R/Q33L/E35D/M47V/T62S/V68M/L85M (Fc fusion, not shown: a dimerising Fc or GST)
# chain: B1 chain with L27Q, S41T, K48N, T62S
# B4: CD80 IgV-Fc T13R/Q33R/E35D/M38I/M47L/V68M (Fc fusion, not shown: a dimerising Fc or GST)
# chain: B1 chain with L27Q, L33R, M38I, S41T, V47L, K48N, M85L
# B5: CD80 IgV-Fc T13R/Q33R/E35D/M38I/M47L/V68M/E95V/L97Q (Fc fusion, not shown: a dimerising Fc or GST)
# chain: B1 chain with L27Q, L33R, M38I, S41T, V47L, K48N, M85L, E95V, L97Q
# B6: CD80 E35D/M47V/N48K/V68M/K89N IgV-Fc, GS(G4S)3 linker (Fc fusion, not shown: a dimerising Fc or GST)
# chain: VIHVTKEVKEVATLSCGHNVSVEELAQTRIYWQKDKKMVLTMMSGDVKIWPEYKNRTIFDITNNLSIMILALRPSDEGTYECVVLKYENDAFKREHLAEVTLSVKADGSGGGGSGGGGSGGGGS
# B7: CD80 E35D/D46V/M47L/V68M/L85Q/E88D IgV-Fc, GS(G4S)3 linker (Fc fusion, not shown: a dimerising Fc or GST)
# chain: B6 chain with D46V, V47L, K48N, L85Q, E88D, N89K
# B8: CD80 ECD-Fc (inert) with GSG4S linker, Example 16 (Fc fusion)
# chain: VIHVTKEVKEVATLSCGHNVSVEELAQTRIYWQKEKKMVLTMMSGDMNIWPEYKNRTIFDITNNLSIVILALRPSDEGTYECVVLKYEKDAFKREHLAEVTLSVKADFPTPSISDFEIPTSNIRRIICSTSGGFPEPHLSWLENGEELNAINTTVSQDPETELYAVSSKLDFNMTTNHSFMCLIKYGHLRVNQTFNWNTTKQEHFPDNGSGGGGSEPKSSDKTHTCPPCPAPEAEGAPSVFLFPPKPKDTLMISRTPEVTCVVVDVSHEDPEVKFNWYVDGVEVHNAKTKPREEQYNSTYRVVSVLTVLHQDWLNGKEYKCKVSNKALPAPIEKTISKAKGQPREPQVYTLPPSREEMTKNQVSLTCLVKGFYPSDIAVEWESNGQPENNYKTTPPVLDSDGSFFLYSKLTVDKSRWQQGNVFSCSVMHEALHNHYTQKSLSLSPG
# B9: variant CD80 IgV-Fc E35D/M47V/V68M/L85M (Fc fusion, not shown: small tags and cut ends; a dimerising Fc or GST)
# chain: B1 chain with R13T, L27Q, L33Q, S41T, K48N
# B10: variant CD80 IgV-Fc E35D/D46E/M47L/V68M/T79M/L85M (Fc fusion, not shown: small tags and cut ends; a dimerising Fc or GST)
# chain: B1 chain with R13T, L27Q, L33Q, S41T, D46E, V47L, K48N, T79M
# B11: CD155 S52L/L104E variant IgV-Fc fusion (Fc fusion, not shown: a dimerising Fc or GST)
# chain: WPPPGTGDVVVQAPTQVPGFLGDSVTLPCYLQVPNMEVTHVSQLTWARHGELGSMAVFHQTQGPSYSESKRLEFVAARLGAELRNASLRMFGLRVEDEGNYTCEFVTFPQGSRSVDIWLRVL
# B12: CD155 T45Q/S52Q variant IgV-Fc fusion (Fc fusion, not shown: a dimerising Fc or GST)
# chain: B11 chain with T45Q, L52Q, E104L
# B13: CD155 T45Q/S52R/G111R variant IgV-Fc fusion (Fc fusion, not shown: a dimerising Fc or GST)
# chain: B11 chain with T45Q, L52R, E104L, G111R
# B14: variant CD80 IgV-Fc Q33L/E35D/M47L/V68M/L85Q/E88D (Fc fusion, not shown: a dimerising Fc or GST)
# chain: B1 chain with R13T, L27Q, S41T, V47L, K48N, M85Q, E88D
# B15: variant CD80 IgV-Fc Q33L/E35D/N48K/L85Q/L97Q (Fc fusion, not shown: a dimerising Fc or GST)
# chain: B1 chain with R13T, L27Q, S41T, V47M, M68V, M85Q, L97Q
# B16: variant CD80 IgV-Fc V22A/E35D/V68E/A71D (Fc fusion, not shown: a dimerising Fc or GST)
# chain: B1 chain with R13T, V22A, L27Q, L33Q, S41T, V47M, K48N, M68E, A71D, M85L
# notes: The molecule is an Fc fusion, which the general text describes as a dimer
# B17: variant CD80 IgV-Fc V22A/R29H/E35D/D46E/M47I (Fc fusion, not shown: a dimerising Fc or GST)
# chain: VIHVTKEVKEVATLSCGHNVSAEELAQTHIYWQKDKKMVLTMMSGEINIWPEYKNRTIFDITNNLSIVILALRPSDEGTYECVVLKYEKDAFKREHLAEVTLSVKAD
# B18: variant CD80 IgV-Fc E35D/M38T/D46E/M47V/N48S (Fc fusion, not shown: small tags and cut ends; a dimerising Fc or GST)
# chain: B17 chain with A22V, H29R, M38T, I47V, N48S
# notes: Fc fusion of the variant IgV
# Target: human CD28 (human, UniProt P10747 19-220)
# Assay: flow cytometry, Jurkat cells (CD28)
Binder,Fold change to WT CD80,MFI at 33.3 nM
B1,0.5 fold,14.6 MFI
B2,0.5 fold,15.7 MFI
B3,0.5 fold,16 MFI
B4,0.4 fold,13.8 MFI
B5,35.4 fold,1110 MFI

# Target: T3, human CD28 (human, UniProt P10747 19-220)
# T3 construct: Endogenous CD28 on Jurkat/IL2 reporter cells
# Assay: flow cytometry on Jurkat cells (CD28)
row,Binder,MFI at 33.3 nM
1,B6,2110 MFI
2,B7,267 MFI
3,B8,37 MFI

# Target: T4, human PD-L1 (human, UniProt Q9NZQ7 19-290)
# T4 construct: also called huPD-L1; CD274
# Assay: flow cytometry; PD-L1 MFI over CD28 MFI
# T4 sequence (Q9NZQ7 19-290): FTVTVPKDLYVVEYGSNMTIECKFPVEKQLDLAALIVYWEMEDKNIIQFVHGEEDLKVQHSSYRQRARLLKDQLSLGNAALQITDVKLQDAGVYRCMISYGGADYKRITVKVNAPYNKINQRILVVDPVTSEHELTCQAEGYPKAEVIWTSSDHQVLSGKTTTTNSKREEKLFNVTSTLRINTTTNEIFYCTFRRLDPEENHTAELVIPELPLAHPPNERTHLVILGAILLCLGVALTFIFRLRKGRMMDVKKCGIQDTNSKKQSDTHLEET
row,Binder,Ratio of PDL1:CD28
1,B1,224 ratio
2,B2,206 ratio
3,B3,248 ratio
4,B4,325 ratio
5,B5,17.2 ratio

# Target: T5, human CTLA4 (huCTLA4), full-length, stably expressed on CHO cells (human, UniProt P16410 36-223)
# T5 construct: whole, on cells
# T5 sequence (P16410 36-223): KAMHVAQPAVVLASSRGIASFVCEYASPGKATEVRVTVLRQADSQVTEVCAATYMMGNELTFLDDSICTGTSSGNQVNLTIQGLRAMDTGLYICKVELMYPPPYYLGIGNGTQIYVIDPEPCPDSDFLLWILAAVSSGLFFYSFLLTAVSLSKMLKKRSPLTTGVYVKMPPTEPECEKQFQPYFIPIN
# Assay: flow cytometry, CHO cells expressing huCTLA4
row,Binder,MFI at 33.3 nM
1,B9,16000 MFI

# Target: T6, human PD-L1 (huPD-L1), full-length, stably expressed on CHO cells (human, UniProt Q9NZQ7 19-290)
# T6 construct: whole, on cells
# T6 sequence (Q9NZQ7 19-290): as the sequence (Q9NZQ7 19-290) above
# Assay: flow cytometry, CHO cells expressing huPD-L1
row,Binder,MFI at 33.3 nM
1,B9,9180 MFI
2,B10,8640 MFI

# Target: T7, human CTLA-4 (human, UniProt P16410 36-223)
# T7 construct: also called huCTLA4
# T7 sequence (P16410 36-223): as the sequence (P16410 36-223) above
# Assay: flow cytometry, CHO cells stably expressing CTLA4
Binder,Fold change to WT CD80,MFI at 33.3 nM
B1,0.1 fold,109 MFI
B2,0.1 fold,141 MFI
B3,0.1 fold,105 MFI
B5,11.8 fold,20700 MFI

# Target: T4, human PD-L1
# Assay: flow cytometry, CHO cells stably expressing PD-L1
Binder,Fold change to WT CD80,MFI at 33.3 nM
B1,63.5 fold,3270 MFI
B2,62.7 fold,3230 MFI
B3,77 fold,3970 MFI
B4,87 fold,4480 MFI
B5,372 fold,19200 MFI

# Target: T8, human PD-L1 (human, UniProt Q9NZQ7 19-290)
# T8 construct: also called huPD-L1; CD274
# Assay: flow cytometry on CHO cells stably expressing PD-L1
# T8 sequence (Q9NZQ7 19-290): as the sequence (Q9NZQ7 19-290) above
row,Binder,MFI at 33.3 nM
1,B6,24200 MFI
2,B7,22600 MFI
3,B8,35 MFI

# Target: T9, CD28, endogenously expressed on Jurkat/IL2 reporter cells (human, UniProt P10747 19-220)
# T9 construct: whole, on cells
# Assay: flow cytometry, Jurkat/IL2 reporter cells (endogenous CD28)
row,Binder,MFI at 33.3 nM
1,B9,201 MFI
2,B10,403 MFI

# Target: T1, CD96
# Assay: flow cytometry on cells expressing CD96, Fc fusion at 100 nM
row,Binder,MFI at 100 nM
1,B11,1830 MFI
2,B12,2450 MFI
3,B13,2340 MFI

# Target: T2, CD226
# Assay: flow cytometry on cells expressing CD226, Fc fusion at 100 nM
row,Binder,MFI at 100 nM
1,B11,2210 MFI
2,B12,5790 MFI
3,B13,2080 MFI

# Target: T10, human PD-L1 (CD274), full-length, expressed on the surface of CHO cells (human, UniProt Q9NZQ7 19-290)
# T10 construct: also called huPD-L1; B7-H1
# T10 sequence (Q9NZQ7 19-290): as above
# Assay: flow cytometry on PD-L1 CHO cells; MFI against WT CD80 ECD-Fc (R&D)
row,Binder,Fold change to WT
1,B14,15.8 fold
2,B15,5.69 fold
3,B16,0.17 fold
4,B17,3.2 fold

# Target: T11, human CTLA-4 (CTLA4), full-length, expressed on the surface of CHO cells (human, UniProt P16410 36-223)
# T11 construct: also called huCTLA4
# T11 sequence (P16410 36-223): as the sequence (P16410 36-223) above
# Assay: flow cytometry on CTLA-4 CHO cells; MFI against WT CD80 ECD-Fc (R&D)
row,Binder,Fold change to WT CD80
1,B14,0.02 fold
2,B15,0.01 fold
3,B16,2.45 fold
4,B17,0.43 fold

# Target: T10, human PD-L1 (CD274), full-length, …
# Assay: flow cytometry; MFI on PD-L1 CHO cells over MFI on Jurkat cells (CD28)
row,Binder,Ratio of PDL1:CD28
1,B14,476 ratio
2,B15,162 ratio
3,B16,0 ratio
4,B17,79 ratio

# Target: T12, human CD28, endogenously expressed on Jurkat/IL2 reporter cells (human, UniProt P10747 19-220)
# T12 construct: This is the endogenous CD28 of Jurkat cells
# Assay: flow cytometry on Jurkat cells (CD28); MFI against WT CD80 ECD-Fc (R&D)
row,Binder,Fold change to WT
1,B14,0.03 fold
2,B15,0.04 fold
3,B16,1.83 fold
4,B17,0.04 fold

# Target: T13, human PD-L1, expressed on CHO cells (human, UniProt Q9NZQ7 19-290)
# T13 construct: Full-length surface expression construct transduced by lentivirus into CHO cells; also called huPD-L1; CD274
# T13 sequence (Q9NZQ7 19-290): as the sequence (Q9NZQ7 19-290) above
# Assay: flow cytometry on CHO cells stably expressing human PD-L1; PE anti-human Fc
row,Binder,MFI at 33.3 nM
1,B18,19400 MFI

# Target: T10, human PD-L1 (CD274), full-length, …
# Assay: flow cytometry, CHO cells stably expressing human PD-L1, 33.3 nM Fc fusion, PE anti-human Fc
row,Binder,MFI at 33.3 nM
1,B14,126000 MFI
2,B15,45200 MFI
3,B16,1350 MFI
4,B17,25400 MFI

# Target: T11, human CTLA-4 (CTLA4), full-length, …
# Assay: flow cytometry, CHO cells stably expressing human CTLA-4, 33.3 nM Fc fusion, PE anti-human Fc
row,Binder,MFI at 33.3 nM
1,B14,3530 MFI
2,B15,1180 MFI
3,B16,437000 MFI
4,B17,77400 MFI

# Target: T12, human CD28, endogenously expressed on …
# Assay: flow cytometry, Jurkat/IL2 reporter cells (endogenous CD28), 33.3 nM Fc fusion, PE anti-human Fc
row,Binder,MFI at 33.3 nM
1,B14,264 MFI
2,B15,279 MFI
3,B16,14000 MFI
4,B17,323 MFI
